# Patent publication US20090136503A1 (BEIJING COTIMES BIOTECH, published 2009)
# Read-outs that look alike come from different tables or passages of the source.
# How the values were obtained:
# [1] = target: T1, TRAIL-R4-Fc fusion protein (human, UniProt Q9UBN6 56-211); assay: ELISA: plate coated with TRAIL-R4-Fc at 1 µg/ml, HRP goat anti-human kappa, TMB
# T1 construct: The origin of the protein is not described; also called TRAIL-R4-Fc fusion antigen; not shown: human IgG1 Fc
# T1 sequence (looked up): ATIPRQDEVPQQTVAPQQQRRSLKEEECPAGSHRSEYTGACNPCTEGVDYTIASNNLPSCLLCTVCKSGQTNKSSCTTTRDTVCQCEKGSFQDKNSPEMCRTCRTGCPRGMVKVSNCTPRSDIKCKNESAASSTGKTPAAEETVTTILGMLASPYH
# [2] = target: T2, BSA (bovine serum albumin), negative control (bovine, UniProt P02769 25-607); assay: ELISA: plate coated with BSA (control) at 1 µg/ml, HRP goat anti-human kappa, TMB
# [3] = target: TRAIL-R1 on the surface of human tumor cells (human, UniProt O00220 24-468); assay: cell-based or functional assay
# [4] = target: T3, TRAIL-R3-Fc fusion protein (human, UniProt O14798 26-221, limits assumed); assay: ELISA: plate coated with TRAIL-R3-Fc at 1 µg/ml, HRP goat anti-human kappa, TMB
# T3 construct: The origin of the protein is not described; also called TRAIL-R3-Fc fusion antigen; not shown: human IgG1 Fc
# T3 sequence (looked up): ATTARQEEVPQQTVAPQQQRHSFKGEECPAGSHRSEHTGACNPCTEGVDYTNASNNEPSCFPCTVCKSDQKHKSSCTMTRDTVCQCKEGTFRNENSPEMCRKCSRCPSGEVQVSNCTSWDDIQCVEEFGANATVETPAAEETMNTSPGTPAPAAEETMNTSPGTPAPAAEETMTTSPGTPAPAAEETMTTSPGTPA
# [5] = target: T4, Heterodimeric TRAIL-R1-Fc/TRAIL-R2-Fc fusion protein (human, UniProt O00220 24-239; O14763 56-210); assay: ELISA: plate coated with TRAIL-R1/TRAIL-R2-Fc heterodimer at 1 µg/ml, CTB003 titrated, HRP anti-mouse IgG, TMB, OD 450/650
# T4 construct: extracellular domain; also called TRAIL-R1/TRAIL-R2 dimer; TRAIL-R1/TRAIL-R2 heterodimer antigen; not shown: Fc portion of human IgG1
# [6] = target: T1, TRAIL-R4-Fc fusion protein; assay: ELISA: plate coated with TRAIL-R4-Fc at 1 µg/ml, HRP goat anti-mouse IgG1, TMB
# [7] = target: T5, TRAIL-R1-Fc fusion protein (human, UniProt O00220 24-239); assay: ELISA: plate coated with TRAIL-R1-Fc at 1 µg/ml, CTB003 titrated, HRP anti-mouse IgG, TMB, OD 450/650
# T5 construct: extracellular domain; also called TRAIL-R1-Fc fusion antigen; not shown: Fc portion of human IgG1
# [8] = target: T6, TRAIL-R2 on the surface of human tumor cells (human, UniProt O14763 56-440); assay: cell-based or functional assay
# [9] = target: T2, BSA (bovine serum albumin), negative …; assay: ELISA: plate coated with BSA (control) at 1 µg/ml, HRP goat anti-mouse IgG1, TMB
# [10] = target: TRAIL-R1 and/or TRAIL-R2 on human cancer cells; assay: cell-based or functional assay
# [11] = target: T3, TRAIL-R3-Fc fusion protein; assay: ELISA: plate coated with TRAIL-R3-Fc at 1 µg/ml, CTB003 titrated, HRP anti-mouse IgG, TMB, OD 450/650
# [12] = target: T5, TRAIL-R1-Fc fusion protein; assay: ELISA: plate coated with TRAIL-R1-Fc at 1 µg/ml, HRP goat anti-human kappa, TMB
# [13] = target: T3, TRAIL-R3-Fc fusion protein; assay: ELISA: plate coated with TRAIL-R3-Fc at 1 µg/ml, HRP goat anti-human kappa, TMB; remark: listed apart in the source
# [14] = target: T2, BSA (bovine serum albumin), negative …; assay: ELISA: plate coated with BSA (control) at 1 µg/ml, HRP goat anti-human kappa, TMB; remark: listed apart in the source
# [15] = target: T4, Heterodimeric TRAIL-R1-Fc/TRAIL-R2-Fc …; assay: ELISA: plate coated with TRAIL-R1/TRAIL-R2-Fc heterodimer at 1 µg/ml, HRP goat anti-human kappa, TMB
# [16] = target: T1, TRAIL-R4-Fc fusion protein; assay: ELISA: plate coated with TRAIL-R4-Fc at 1 µg/ml, HRP goat anti-human kappa, TMB; remark: listed apart in the source
# [17] = target: Human IgG1 (control antigen) (human); assay: ELISA; human IgG1 captured on goat anti-human IgG, antibody at 2 µg/ml
# [18] = target: T6, TRAIL-R2 on the surface of human tumor …; assay: cell-based or functional assay; remark: listed apart in the source
# [19] = target: T1, TRAIL-R4-Fc fusion protein; assay: ELISA: plate coated with TRAIL-R4-Fc at 1 µg/ml, HRP goat anti-mouse IgG, TMB
# [20] = target: T3, TRAIL-R3-Fc fusion protein; assay: ELISA: plate coated with TRAIL-R3-Fc at 1 µg/ml, HRP goat anti-mouse IgG, TMB
# [21] = target: T5, TRAIL-R1-Fc fusion protein; assay: ELISA: plate coated with TRAIL-R1-Fc at 1 µg/ml, HRP goat anti-human kappa, TMB; remark: listed apart in the source
# [22] = target: T4, Heterodimeric TRAIL-R1-Fc/TRAIL-R2-Fc …; assay: ELISA: plate coated with TRAIL-R1/TRAIL-R2-Fc heterodimer at 1 µg/ml, HRP goat anti-human kappa, TMB; remark: listed apart in the source
# [23] = target: T2, BSA (bovine serum albumin), negative …; assay: ELISA: plate coated with BSA (control) at 1 µg/ml, HRP goat anti-human kappa, TMB; remark: listed apart in the source
# [24] = target: T3, TRAIL-R3-Fc fusion protein; assay: ELISA: plate coated with TRAIL-R3-Fc at 1 µg/ml, HRP goat anti-human kappa, TMB; remark: listed apart in the source
# [25] = target: T1, TRAIL-R4-Fc fusion protein; assay: ELISA: plate coated with TRAIL-R4-Fc at 1 µg/ml, HRP goat anti-human kappa, TMB; remark: listed apart in the source
# T2 sequence (P02769 25-607 limits assumed): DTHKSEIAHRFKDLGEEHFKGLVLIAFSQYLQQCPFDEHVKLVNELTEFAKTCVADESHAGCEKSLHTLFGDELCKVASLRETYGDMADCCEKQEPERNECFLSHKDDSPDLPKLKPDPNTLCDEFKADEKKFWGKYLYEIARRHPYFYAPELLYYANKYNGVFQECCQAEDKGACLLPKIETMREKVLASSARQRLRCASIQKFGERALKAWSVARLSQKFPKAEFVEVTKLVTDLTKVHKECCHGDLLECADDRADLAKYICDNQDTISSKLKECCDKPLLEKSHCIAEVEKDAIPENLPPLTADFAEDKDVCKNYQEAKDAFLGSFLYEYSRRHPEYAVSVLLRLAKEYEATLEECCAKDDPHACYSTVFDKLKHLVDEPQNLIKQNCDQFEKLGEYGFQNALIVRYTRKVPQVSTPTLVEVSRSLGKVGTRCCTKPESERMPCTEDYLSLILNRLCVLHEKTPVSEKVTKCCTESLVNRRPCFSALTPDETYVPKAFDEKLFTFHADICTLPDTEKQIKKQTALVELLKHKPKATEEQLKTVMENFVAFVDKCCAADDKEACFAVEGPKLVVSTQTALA
binder,measurement,setting,value
"Human chimeric CTB007 (mouse-human chimeric antibody) (antibody, V domains shown, Human IgG1 / kappa constant regions, made in CHO cells; also called hCTB007; HuCTB007) VH: EVQLQQSGAELVKPGASVKLSCTASGFNIKDTYMHWVKQRPEQGLEWIGRIDPANGNTKYDPKFQGKATITADTSSNTAYLQLSSLTSEDTAVYYCAYYYVSNAWFTYWGQGTLVTVSA VL: DIQMTQSPASLSVSVGETVTITCRASENIYSNLEWYQQKQGKSPQLLVYAATNLADGVPSRFSGSGSGTQYSLKINSLQSEDFGSYYCQHFWGTWTFGGGTKLEIKR",binding result,[1],no binding (tested: 1000 ng/ml)
same,binding result,[2],no binding (tested: 1000 ng/ml)
same,"IC50 (ng/ml), killing of Carov 3 cells, ATPLite cell viability",[3],31.6 ng/mL
same,"IC50 (ng/ml), killing of Colo205 cells, ATPLite cell viability",[3],5.9 ng/mL
same,"IC50 (ng/ml), killing of Du145 cells, ATPLite cell viability",[3],28.6 ng/mL
same,"IC50 (ng/ml), killing of H-2122 cells, ATPLite cell viability",[3],22.5 ng/mL
same,"IC50 (ng/ml), killing of MDA231 cells, ATPLite cell viability",[3],7.5 ng/mL
same,"IC50 (ng/ml), killing of MIAcap cells, ATPLite cell viability",[3],8.8 ng/mL
same,binding result,[4],no binding (tested: 1000 ng/ml)
"CTB003 murine monoclonal antibody (hybridoma CGMCC 1665) (antibody, mouse IgG1, V domains shown, also called murine CTB003; parental murine CTB003) VH: EVHLVESGGGLVRPGGSLKLSCAASGFAFSSYDMSWVRQTPEKRLEWVAYISDGGGITYYPDTMKGRLTISRDNAKNTLSLQMSSLKSEDTAMYYCARHITMVVGPFAYWGQGTLVTVSA VL: DIQMTQSSSSFSVSLGDRVTITCKAGEDIYNRLAWYQQKPGNAPRLLISGATNLETGVPSRFSGSGSGKDYTLSITSLQTEDVATYYCQQYWSTPLTFGAGTKLELK",EC50 (read off the curve),[5],~0.02 µg/mL
same,binding result,[6],no binding (tested: 1000 ng/ml)
same,EC50 (read off the curve),[7],~0.02 µg/mL
same,"IC50 (read off the curve); cell viability (%) of Jurkat cells, ATPLite, 16 h",[8],~0.02 µg/mL
same,binding result,[9],no binding (tested: 1000 ng/ml)
same,"IC50 (ng/ml), killing of Carov 3 cells, ATPLite cell viability",[10],24.6 ng/mL
same,"IC50 (ng/ml), killing of Colo205 cells, ATPLite cell viability",[10],7.1 ng/mL
same,"IC50 (ng/ml), killing of Du145 cells, ATPLite cell viability",[10],25.3 ng/mL
same,"IC50 (ng/ml), killing of H-2122 cells, ATPLite cell viability",[10],28.5 ng/mL
same,"IC50 (ng/ml), killing of MDA231 cells, ATPLite cell viability",[10],3.8 ng/mL
same,"IC50 (ng/ml), killing of MIAcap cells, ATPLite cell viability",[10],13.2 ng/mL
same,binding result,[11],no binding (tested: 10^4 ng/ml)
"Human chimeric CTB003 (mouse-human chimeric antibody) (antibody, human IgG1, V domains shown, Human IgG1 / kappa constant regions, made in CHO cells; also called hCTB003; HuCTB003) VH: EVHLVESGGGLVRPGGSLKLSCAASGFAFSSYDMSWVRQTPEKRLEWVAYISDGGGITYYPDTMKGRFTISRDNAKNTLSLQMSSLKSEDTAMYYCARHITMVVGPFAYWGQGTLVTVSA VL: DIQMTQSSSSFSVSLGDRVTITCKASEDIYNRLAWYQQKPGNAPRLLISGATSLETGVPSRFSGSGSGKDYTLSITSLQTEDVATYYCQQYWSTPLTFGAGTKLELKR",binding result,[12],binds
same,binding result,[13],no binding (tested: 1000 ng/ml)
same,binding result,[14],no binding (tested: 1000 ng/ml)
same,binding result,[15],binds
same,binding result,[16],no binding (tested: 1000 ng/ml)
"CTB006 murine monoclonal antibody against TRAIL-R2 (hybridoma CGMCC 1691) (antibody, V domains shown, Murine monoclonal antibody; also called Anti-TRAIL-R2 (CTB006); CTB006-HRP) VH: QVQLQQPGPELVKPGASVRMSCKASGYTFTSYFIHWVKQRPGQGLEWIGWIYPGNVNTKYSEKFKGKATLTADKSSSTAYMQFSSLTSEDSAVYFCARGEAGYFDYWGQGTTLTVSS VL: DIVMTQSHKFMSTSVGDRVSITCKASQDVSTAVAWYQQKPGQSPRLLIYWASTRHTGVPDRFTGSGSGTDYTLTISSVQAEDQALYYCQQHYRTPWTFGGGTKLEIK",OD 450 nm/650 nm,[17],0.028 OD
same,"IC50 (read off the curve); cell viability (%) of Jurkat cells, ATPLite, 16 h",[8],~0.01 µg/mL
same,"IC50 (ng/ml), killing of Carov 3 cells, ATPLite cell viability",[18],17.4 ng/mL
same,"IC50 (ng/ml), killing of Colo205 cells, ATPLite cell viability",[18],5.8 ng/mL
same,"IC50 (ng/ml), killing of Du145 cells, ATPLite cell viability",[18],55.6 ng/mL
same,"IC50 (ng/ml), killing of H-2122 cells, ATPLite cell viability",[18],44.1 ng/mL
same,"IC50 (ng/ml), killing of MDA231 cells, ATPLite cell viability",[18],2.2 ng/mL
same,"IC50 (ng/ml), killing of MIAcap cells, ATPLite cell viability",[18],9.5 ng/mL
same,binding result,[19],no binding (tested: 1000 ng/ml)
same,binding result,[20],no binding (tested: 1000 ng/ml)
"Human chimeric CTB006 (mouse-human chimeric antibody) (antibody, V domains shown, Human IgG1 / kappa constant regions, made in CHO cells; also called hCTB006; HuCTB006) VH: EVQLQQSGPELVKPGASVRMSCKASGYTFTSYFIHWVKQRPGQGLEWIGWIYPGNVNTKYSEKFKGKATLTADKSSSTAYMQFSSLTSEDSAVYFCARGEAGYFDYWGQGTTLTVSS VL: DIVMTQSHKFMSTSVGDRVSITCKASQDVSTAVAWYQQKPGQSPRLLIYWASTRHTGVPDRFTGSGSGTDYTLTISSVQAEDQALYYCQQHYRTPWTFGGGTKLEIKR",binding result,[21],no binding (tested: 1000 ng/ml)
same,binding result,[22],binds
same,"IC50 (ng/ml), killing of Carov 3 cells, ATPLite cell viability",[18],18.5 ng/mL
same,"IC50 (ng/ml), killing of Colo205 cells, ATPLite cell viability",[18],6.2 ng/mL
same,"IC50 (ng/ml), killing of Du145 cells, ATPLite cell viability",[18],52.3 ng/mL
same,"IC50 (ng/ml), killing of H-2122 cells, ATPLite cell viability",[18],42.1 ng/mL
same,"IC50 (ng/ml), killing of MDA231 cells, ATPLite cell viability",[18],1.5 ng/mL
same,"IC50 (ng/ml), killing of MIAcap cells, ATPLite cell viability",[18],10.1 ng/mL
same,binding result,[23],no binding (tested: 1000 ng/ml)
same,binding result,[24],no binding (tested: 1000 ng/ml)
same,binding result,[25],no binding (tested: 1000 ng/ml)
